{
  "source": "patent US7825091B2",
  "about": "“Modification of feeding behaviour” (Imperial Innovations Limited, priority 2003, dated 2010)",
  "key": {"[1]": {"tested_on": "fos-like immunoreactivity", "test": "Fos-like immunoreactivity (FLI) immunohistochemistry in hypothalamus and brainstem after IP injection", "type": "in vivo, rat", "settings": "IP 15 nmol/kg, 90 minutes", "quoted_text": "The brains were removed and post-fixed overnight in PBF and then transferred to PB-sucrose (20% w/v) overnight. 40 μm coronal sections of brain and brainstem were cut on a freezing microtome and stained for fos-like immunoreactivity (FLI) by the avitin-biotin-peroxidase method. The sections were then mounted on poly-L-lysine-coated slides, dehydrated in increasing concentrations of ethanol (50-100%), delipidated in xylene and coverslipped using DPX mountant. Slides were examined for FLI-positive nuclei using a light microscope (Nikon Eclipse E-800) and images captured using a microimager (Xillix MicroImager). The numbers of FLI-positive nuclei in the hypothalamus and brainstem were counted by an independent member of the research team who was blinded to the experimental groups. The average number of FLI-positive nuclei per section was calculated and expressed as an integer for each animal."}, "[2]": {"biological_target": "T1, Arcuate nucleus GLP-1 receptors (Rattus norvegicus, UniProt P32301)", "T1 construct": "24-hour fasted rats received an iARC injection of saline or exendin9-39 (5 nmoles); from tissue; host or cells: live rat, hypothalamic arcuate nucleus", "T1 sequence (P32301 22-463)": "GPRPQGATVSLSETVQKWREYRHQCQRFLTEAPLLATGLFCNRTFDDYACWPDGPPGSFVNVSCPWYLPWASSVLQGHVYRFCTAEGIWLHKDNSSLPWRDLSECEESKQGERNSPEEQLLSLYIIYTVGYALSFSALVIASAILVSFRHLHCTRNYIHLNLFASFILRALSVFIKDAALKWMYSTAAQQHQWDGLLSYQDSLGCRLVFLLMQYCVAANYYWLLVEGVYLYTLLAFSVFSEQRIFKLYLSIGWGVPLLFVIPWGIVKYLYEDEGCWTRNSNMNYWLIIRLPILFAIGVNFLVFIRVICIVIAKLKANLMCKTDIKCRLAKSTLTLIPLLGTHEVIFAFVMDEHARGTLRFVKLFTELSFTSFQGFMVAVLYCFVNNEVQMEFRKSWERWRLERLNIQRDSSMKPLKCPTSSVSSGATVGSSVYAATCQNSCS", "test": "iARC exendin 9-39 prior to IP OXM or GLP-1, 1 hour food intake", "type": "in vivo", "source_text": "Rats cannulated into the arcuate nucleus were randomised into 6 groups (n=10-12 per group). […] The injection details are described in Table 1 below."}, "[3]": {"biological_target": "T2, GLP-1 receptor (Rattus norvegicus, UniProt P32301)", "T2 construct": "from tissue; host or cells: rat hypothalamus (membrane preparation)", "T2 sequence (P32301 22-463)": "T1 sequence (P32301 22-463)", "test": "Coadministration of exendin-(9-39) with GLP-1 or OXM, ICV and iPVN, food intake (study 4)", "type": "in vivo"}, "[4]": {"test": "ICV injection, food intake in 24-h fasted rats (studies 1a, 2a)", "type": "in vivo, rat", "settings": "ICV 3 nmol, vs saline", "source_text": "(§1) Animals were handled daily after recovery from surgery until completion of the studies.\n(§2) Animals had permanent stainless steel guide cannulas (Plastics One, Roanoke, Va.) stereotactically implanted ICV (intracerebraventricularly) or iPVN (into the hypothalamic paraventricular nucleus)."}, "[5]": {"test": "iPVN injection, food intake in 24-h fasted rats (studies 1b, 2b)", "type": "in vivo, rat", "method": "as §1, §2\nTherefore, exendin-4 was injected iPVN at a dose of 0.03 nmol."}},
  "note": "No end group written: not given here.",
  "data": [
    {"substance": "CCK: positive control for gastric emptying at the two-hour time-point (DYMGWMDF; ends and bridges not checked; UniProt P06307 96-103, looked up)", "values": [
      {"measurement": "FLI staining in the brainstem (NTS, area postrema)", "setting": "[1]", "value": "caused dense staining of FLI"}
    ]},
    {"substance": "exendin-(9-39)", "values": [
      {"measurement": "effect on anorexia caused by IP administration of OXM", "setting": "[2]; exendin 9-39 into the ARC, dose printed 300 nmol/kg, IP OXM 30 nmol/kg", "value": "blocked"},
      {"measurement": "Food intake (g), 1 hour", "setting": "[2]; iARC exendin 9-39 (5 nmoles) or saline 15 minutes prior to IP OXM (30 nmol/kg), GLP-1 (30 nmol/kg) or saline", "value": 9.0, "unit": "g"},
      {"measurement": "effect on inhibition of food intake by IP GLP-1", "setting": "[2]; prior iARC exendin 9-39, IP GLP-1 30 nmol/kg", "value": "not affected"},
      {"measurement": "effect of coadministration on anorectic effects of GLP-1", "setting": "[3]; ICV, exendin-(9-39) 30 nmol with GLP-1 3 nmol, ratio 10:1", "value": "blocked the anorectic effects of GLP-1"},
      {"measurement": "effect of coadministration on anorectic effect of OXM", "setting": "[3]; ICV, exendin-(9-39) 30 nmol with OXM 3 nmol", "value": "attenuation of the anorectic effect of OXM"},
      {"measurement": "effect of coinjection on anorectic effects of GLP-1", "setting": "[3]; iPVN, exendin-(9-39) 10 nmol with GLP-1 1 nmol", "value": "blocked"},
      {"measurement": "effect of coinjection on anorectic effects of OXM", "setting": "[3]; iPVN, exendin-(9-39) 10 nmol with OXM 1 nmol", "value": "blocked"}
    ]},
    {"substance": "glucagon", "values": [
      {"measurement": "food intake (refeeding) after ICV injection", "setting": "[4]", "value": "failed to affect food intake at any time point"},
      {"measurement": "food intake after iPVN injection", "setting": "[5]; iPVN 1 nmol, any time point", "value": "failed to affect food intake at any time point"}
    ]},
    {"substance": "exendin-4", "values": [
      {"measurement": "food intake (refeeding) after iPVN injection", "setting": "[5]; iPVN 0.03 nmol", "value": "inhibited reseeding"}
    ]}
  ]
}
